The text below walks through data of the nanobody polyreactivity screen of Harvey et al. (2022).

The nature of the data set: yeast display, Sf9 membrane polyspecificity reagent, FACS + sequencing; frameworks hold sequencing errors. Summed up: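 Nanobodies came from a synthetic yeast display library in Saccharomyces cerevisiae BJ5465, induced with galactose for 36–48 hours and stained for 1 hour at 4 °C with 10% biotinylated, detergent-solubilized Sf9 membrane reagent. Cells were enriched on streptavidin microbeads and then FACS-sorted, with low and high (top ~1%) gates set on anti-HA fluorescence for expression and streptavidin fluorescence for reagent binding. Each polyreactivity label reflects the gate a clone came from. Genes were amplified by colony PCR, sequenced by MiSeq 2 × 250 and filtered by CDR length.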
For the sequence “QVQLVESGGGLVQAGCSLRLSCAASGFIFLTNGMGWYRQAPGTERELVAVITSSTGSTSYADSVKGRFTISRDIAKNTVYLQMNSLKPEDTAVYYCDDSTGVSWYYPSGSLDYWGQGTQVNVSS”, the “polyreactivity (PSR sort gate)” value was “low polyreactivity”.
As for “QVQLVESGGGLVQAGCSLRLSCAASGFTFGSNEMGWYRPAPGKLRELVAAINYSGVRTYYADSVKGRFTISRDKAMNNVYLQMKSLKPEETAVDFCAKTRSKPISFDYWGQGTQVTVSS”, the entry is “high polyreactivity”; as for “QVQLVESGGGLVQAGCSLRLSCAASGFTFQVYTMGSYRPAPGKERELVARISRRGGSTYYADSVKGRFTISRDNAKNTVYLQMNSLKPEDTAVYYCAADWYASSYRTYTFDYWGQGTQVTVSS”, “high polyreactivity”; as for “QVQLVESGGGLVQAGCSLRLSCAASGFTFYPYAMGWYRQAPGKERELVAAITRGGSTYYADSVKGRFTISRDNEKNTVYLQMNSLTPEDTAVYYCNAYWQGYGYDYWGQGTQVTVSS”, “low polyreactivity”.
Then “QVQLVESGGGLVQAGCSLRLSCAASGFTFYQNVMGWYRQAPGKERELVASINRRGGSTYYADSVKGRFTISRDNAMNTVYLQKNSLKPEDTAVYYCAARTYRFYTRQLDYWGQGTQVTVSS”, with “high polyreactivity”; and “QVQLVESGGGLVQAGCSLRLSCAASGFTFYYNAMGWYRQAPGKERDLVAAISISGASTYYADSVKGRFTISRDNAKNTVYLQMNSLKPEDTAVFYCAKRTKGYTYHHEYGYWGQGTQVTVSS”, with “low polyreactivity”.
Then “QVQLVESGGGLVQAGCSLRLSCAASGITFVPYAIGWYRQAPGKDRELVAAITGGGSTNYADSVKGRFTISRDNAKNTVYLQMNSLNQEDTAVYYCAKHAYGYYYSRSDYWGQGTQVTVSS”, with “low polyreactivity”; and “QVQLVESGGGLVQAGCSLRLSCAASGRIFASNPMGWYRQAPGKERELVAGISRNGGSTFYADSVKGRFTISRDNAKNTVDVQMHSLKPEDTEVYYCARYFTHSGGYRDRIYYYWGQGTQVTVSS”, with “low polyreactivity”; and “QVQLVESGGGLVQAGCSLRLSCAASGRIFDGNAMGWYRQAPGKERELVAAISWTGGSTYYADSVKGRFTISRDNAKNTVYLQMNSLKPEDTAVYYCAADSGWWLEQWSWYDYWGQGTQVTVSS”, with “low polyreactivity”.
Turning to “QVQLVESGGGLVQAGCSLRLSCAASGRIFHLYAMGWYTQAPGKERELVAAITGRGGSTYYADSVKGRFTISRDNAKNTVYLQINCLKPEDTAVYYCASYEFGFLRYYSGRSYYYWGQGTQVTVSS”, the “polyreactivity (PSR sort gate)” value was “high polyreactivity”.
As for “QVQLVESGGGLVQAGCSLRLSCAASGRIFWMNTMGRYRQAPGKERELVAAISFRSDDTYYADSVKGRFTISRDIAKNTVYLQMKSLKPEDTAVYYCNKAWFPYYFYRFDYWGQGTQVTVSS”, the entry is “high polyreactivity”; as for “QVQLVESGGGLVQAGCSLRLSCAASGRILFGYAMGWYRQAPGKERELVAAITGSGDSTYYADSVKGRFTISRDNAKNAVYLQLYSLKPEDTAVYYCATEEVYGQGNYWGHGTQVTVSS”, “low polyreactivity”.
Then “QVQLVESGGGLVQAGCSLRLSCAASGRTFGTYTKGWYRQAPGKERELVAAIYTRDGSTYYADSVKGRFSISRDNAKNTVYLQMNSLKPDDTAFYYCNAVVRYYDWGYWDYDYWGQGTQVTVSS”, with “low polyreactivity”.
Then “QVQLVESGGGLVQAGCSLRLSCAASGRTFNGYAMGWYRQAPGKERELVAAIASEGDTNYADSVKGRFTISRDNAKNTVYLQMNSLKPEDTAVYYCNADITRIWHFKYDYWGQGTQVTVSS”, with “high polyreactivity”.
On to “QVQLVESGGGLVQAGCSLRLSCAASGRTFNYYAMGWYRQAPGKERELVAAISVSGVRTYYADSVKGRFTISRDNAKNSVYLQMNSLKPEDTAVYYCAGLYQSVRGYVYWGQGTQVTVSS”, for which the “polyreactivity (PSR sort gate)” value is recorded as “high polyreactivity”.
Then “QVQLVESGGGLVQAGCSLRLSCAASGRTLFKYAMGWYRQAPGKERELVAVISWGGGITYYADSVKGRFTISRDNAKNTVYLKMNSLKPEDTAVYYCATDSHARFYRYYWGQGTQVTVSS”, with “low polyreactivity”; and “QVQLVESGGGLVQAGCSLRLSCAASGSFFSSNSMGWYRQAPGTERELVAAISRSGGNTYYADSVKGRFTISRDNAKNTVYLQMNSLKPEDTAVYYCAVVGRHGQKYDWGQGNQVTVSS”, with “high polyreactivity”; and “QVQLVESGGGLVQAGCSLRLSCAASGSIFARYAMGWSRQAPGKERELVAAINSTVSTNYADSVKGRFTISRDNAKNTVYLQMNSLKTEDTAVYYCAVDIVRGGRDSWGQGTQVTVSS”, with “low polyreactivity”.
In the case of “QVQLVESGGGLVQAGCSLRLSCAASGSIFDSKAMGWYRQAPGKERELVAAISSSGARTYYADSVKGRFTISRDNAKNTVYLQMNSLKPEDTAVYYCAAKPGYKSKMDYWGQGTQVTVSS”, the “polyreactivity (PSR sort gate)” value is given as “high polyreactivity”.
Then “QVQLVESGGGLVQAGCSLRLSCAASGSIFGWYAMGWYRPAPGKERELVAAITLIGGSTYYADSVKGRFTISRDNAKNTVYLQMNSLKPEDTAVYYCNAVWYWGDMDYWGQGTQVTVSS”, with “low polyreactivity”; and “QVQLVESGGGLVQAGCSLRLSCAASGSILWHYAMGWYRPAPGKERELVAAISGSGRTNYADSVKGGFTISRDNAKNTVYLQLNSLKPEDTAVYYGARVHGTSESKYYYWGQGTQVTVSL”, with “low polyreactivity”; and “QVQLVESGGGLVQAGCSLRLSCAASGSTFYYYAMGWYRQAPGKERELVAAISNRDGRTYYADSVKGRFTISRDTAKNTVYFQMNSLKPEDSAVYYCNAYSYGHYYWGHGTQVTVSS”, with “high polyreactivity”.
In the case of “QVQLVESGGGLVQAGCSLRLSCAASGSTYIRNAMGWYRQAPGKERELVAAISTSGSRTYYADSVKGRFTISRDNAKNTVYLQMNSLKPEDTAVYYCAKVPAGSRIEYDYCGQGTQVTVSS”, the “polyreactivity (PSR sort gate)” value is reported as “high polyreactivity”.
Then “QVQLVESGGGLVQAGCSLRLSCAASGTIFWYYAMGWYRQAPGKERELVAAISSGGSTYYADSVKGRFTISRDNAKNTVYLQMNSLKPEDTAVYYCNVRLRKKIQNSKYDYWGQGTQVTVSS”, with “high polyreactivity”; and “QVQLVESGGGLVQAGCSLRLTCAASGRTFITNAKGWYRQAPVKERELVAAISSGTGGRTNYADSVKGRFTISRDNAKNTVYLQMNSRKPEDTAVYYCAARSTKYYPYGYWGQGTQVTLSS”, with “high polyreactivity”; and “QVQLVESGGGLVQAGCSLRVSSAASGRIFVYYAMGRYRQAPGKERELVAAIRWTGGSTYYADSVKGRFTISRDNAKNTVYLQMNSVKPEDTAVYYCATVNRYCHFNYWGQGTQVTVSS”, with “high polyreactivity”.
“QVQLVESGGGLVQAGFSLRLSCAASGSIFFIYDKGWYRQAPGKERELVADITSGGGSTFYADSVKGRFTISRDNAKNTVYLQMNSLKPEDTAVYYCATDDHDQPGGQLYISEVNYWGQGTQVTVSS”: the “polyreactivity (PSR sort gate)” value is “low polyreactivity”.
For “QVQLVESGGGLVQAGGCLRLSCAASGFTFPFYAMGWYRQAPGKERELVAAITSRGGSTYYADSVKGRFTISRDNAKNTVYLQMNSLKPEHTAVYYCAARYTPRRYYYWGQGTQVTVSS”, the “polyreactivity (PSR sort gate)” value is “high polyreactivity”.
As to “QVQLVESGGGLVQAGGGLRLSCAASGRIFSPYAMGWDRQSPGKEMELVAAIRRSGVDTYYADSVKGRFTISRDNAKNTVYLQINSLKPEDTAVYYCAADPYWFFPHYDSWGQGTQVTVSS”, the “polyreactivity (PSR sort gate)” value was “low polyreactivity”.
As to “QVQLVESGGGLVQAGGGLRLSCAASGSTFVKNAMGWYRQAPGKERELVAAISYRGGRTYYADSVKGRFTISRDNAKNTVYLQMNSLKPEDTAVYYCAADASHLTGSEYWGQGTQVTVSS”, the “polyreactivity (PSR sort gate)” value is on record as “high polyreactivity”.
Then “QVQLVESGGGLVQAGGILLLSCAASGGTFENYAMGWYIQAPGKERELVAAISSGGSTNYADSVKGRFTISRDNAKNTVYLQMNRLKPEDTAVYYCARYRVWGSNGHKLFHYDYWGQGTQVTVSS”, with “low polyreactivity”; and “QVQLVESGGGLVQAGGILLLSCAASGSIFKPYAMGWYTQAPGKERELVAAISKRGGSTSYADSVKGRFTISRDNAKNSVYLQMNSLKPEDTAVYYCAAVAAFSGLSWYDYWGLGTQVTVSS”, with “high polyreactivity”.
On to “QVQLVESGGGLVQAGGILRISCAASGFIFDLYAMGWYRQAPGKERELVAAISGSGGSTYYADSVKGRFTISRDNAKNTVYLQMNSLKPEDTAVYYCAARRFGTNYDYWGQGTQVTVSS”, for which the “polyreactivity (PSR sort gate)” value was “high polyreactivity”.
Turning to “QVQLVESGGGLVQAGGILRLSCAASGFIFEYYAMGWYRQAPGKERELVAAINGGGGNTYYADSVKGRFTISRDNAKNTVYLQMNSLKPEDTAVYYCNAKRRKYRYDYWGQGTQVTVSS”, the “polyreactivity (PSR sort gate)” value is “high polyreactivity”.
Then “QVQLVESGGGLVQAGGILRLSCAASGFIFSSNAMGWYRQAPGKERELVAAITSSGGGTYYADSVKGRFTISRDNAKNTVYLQMNSLKPEDTAVYYCNAAYKYAIPSYGYWGQGTQVTVSS”, with “low polyreactivity”; and “QVQLVESGGGLVQAGGILRLSCAASGFIFWYNAMGWYRQAPGKERELVARINIGGTTSYADSVKGRFTISRDNAKNNVYLQMNSLKREDTAVYYCNAVQGRQYDYWGQGTQVNVSS”, with “low polyreactivity”; and “QVQLVESGGGLVQAGGILRLSCAASGFTFSSNAMGWYRPAPGKERELVAAISKGGGSTYYADSVKGRFTISRDNAKNSVYLQMNSLKPEDTAVYYCATRRRGGLTFDSWGQGTQVTVSS”, with “high polyreactivity”.
As for “QVQLVESGGGLVQAGGILRLSCAASGFTFVGNAMGWYRKAAGKERELVATITSGGNTKYADSVKGRFTISRDNAKNTVYLQMNSLTPEDTAVYYCAAAKYNYRRFKYWGQGTQVTVSS”, the entry is “low polyreactivity”; as for “QVQLVESGGGLVQAGGILRLSCAASGIIFGYYAMGWYRQAPGKERELVAAISSIGGSTYYADSVKGRFTISRDNAKNTVYLQMNSLKPEDTAVYYCAAKYYGRYYRYLGSSFDYWGQGTQVTVSS”, “high polyreactivity”.
Then “QVQLVESGGGLVQAGGILRLSCAASGIIFQRNEMGWYRQTPGKERELVANIRDGGITYADSVKGRFTISRDNAKNTVYLEMNSLKPEDTAVYYCARDDTSPGYCDQSSNAAYYYWGQGTQVTVSS”, with “low polyreactivity”; and “QVQLVESGGGLVQAGGILRLSCAASGIIFSEYAMGWYRQAPGKERELVAAISKSSGSTRYADSVKGRFTISRDNAKNTVYLQMNSLKPEDTAVYYCAREYRWRYGYDYWGQGTQVTVSS”, with “high polyreactivity”.
